{
  "source": "patent US20090175866A1",
  "about": "“TREATMENT OF B-CELL MALIGNANCIES” (priority 2004, published 2009)",
  "molecules": {"B1": {"name": "PRO-001: human anti-FGFR3 Fab from HuCAL library; VH-CDR3 SEQ ID NO:1, VL-CDR3 SEQ ID NO:10; VH SEQ ID NO:19, VL SEQ ID NO:28 (antibody, V domains shown)", "VH": "QVQLQQSGPGLVKPSQTLSLTCAISGDSVSSNSAAWNWIRQSPGRGLEWLGRTYYRSKWYNDYAVSVKSRITINPDTSKNQFSLQLNSVTPEDTAVYYCARSYYPDFDYWGQGTLVTVSS", "VL": "DIELTQPPSVSVAPGQTARISCSGDALGDKYASWYQQKPGQAPVLVIYDDSDRPSGIPERFSGSNSGNTATLTISGTQAEDEADYYCQSYDGPDLWVFGGGTKLTVLGQ"}},
  "key": {"FGFR3": {"biological_target": "FGFR3 (Homo sapiens, UniProt P22607)", "sequence (P22607 23-806)": "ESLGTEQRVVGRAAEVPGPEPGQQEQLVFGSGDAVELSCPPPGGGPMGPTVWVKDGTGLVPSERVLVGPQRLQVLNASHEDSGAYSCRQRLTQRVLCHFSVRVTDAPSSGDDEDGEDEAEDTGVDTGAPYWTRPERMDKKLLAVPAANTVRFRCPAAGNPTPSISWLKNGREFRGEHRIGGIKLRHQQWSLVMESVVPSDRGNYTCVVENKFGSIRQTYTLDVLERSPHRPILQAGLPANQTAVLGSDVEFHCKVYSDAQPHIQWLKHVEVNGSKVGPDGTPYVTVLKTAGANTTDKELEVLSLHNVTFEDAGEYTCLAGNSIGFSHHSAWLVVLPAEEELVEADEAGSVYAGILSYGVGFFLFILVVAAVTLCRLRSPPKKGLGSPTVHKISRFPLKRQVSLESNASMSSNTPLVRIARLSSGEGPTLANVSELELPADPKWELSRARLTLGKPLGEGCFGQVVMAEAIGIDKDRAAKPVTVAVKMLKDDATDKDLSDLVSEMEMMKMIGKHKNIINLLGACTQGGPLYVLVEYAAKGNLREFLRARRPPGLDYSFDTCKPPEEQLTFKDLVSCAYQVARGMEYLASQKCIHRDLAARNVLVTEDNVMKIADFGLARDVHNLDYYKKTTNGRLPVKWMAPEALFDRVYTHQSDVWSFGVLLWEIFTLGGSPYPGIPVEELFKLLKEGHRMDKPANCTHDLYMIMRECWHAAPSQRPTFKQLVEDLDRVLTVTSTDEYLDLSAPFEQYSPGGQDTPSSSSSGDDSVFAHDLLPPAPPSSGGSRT", "experiment": "FGFR3 domain specificity of binding"}, "WT FGFR3": {"biological_target": "T1, WT FGFR3 (Homo sapiens, UniProt P22607)", "T1 construct": "expressed in transfected cells; host or cells: B9 cells", "T1 sequence (P22607 23-806)": "as above", "experiment": "Viability of FGF-stimulated B9-FGFR3^WT cells", "format": "cell-based", "experimental": "FIG. 1B is a graph showing viability of B9-FGFR WT cells treated with different concentrations of PRO-001. The filled bars represent the control (no PRO-001). The dotted bars represent PRO-001 treated cells.\nNon-transformed rat chondrocyte cell line expressing PGFR3 in an inducible manner (RCJ-FGFR3) has been described previously (Rauchenberger R. et al. J. Biol. Chem. 2003; 278:38194-205). Cells were maintained in α-Minimum Essential Media supplemented with 15% fetal calf serum (FCS), 2 mM L-Glutamine, 100 U/ml penicillin, 100 μg/ml streptomycin, 600 μg/ml G418 (Gibco BRL, Ontario, Canada), 2 μg/ml Tetracyclin (Sigma, Ontario, Canada), and 50 μg/ml HygromycinB (Gibco BRL). […]\n(§1) Cell viability was assessed by 3-(4,5-dimethylthiazol)-2,5-diphenyl tetrazolium (MTT) or (2,3-bis(2-methoxy-4-nitro-5-sulphophenyl)-5-[(phenylamino) carbonyl]-2H-tetrazolium hydroxide (XTT) dye absorbance where indicated. Cells were seeded in 96-well plates at a density of 20,000 (FDCP-1 cells), 5,000 (B9 cells) or 25,000 cells (MM cell lines) per well in culture medium. Cells were incubated in the absence or presence of one of the following cytokines: 10 ng/ml FGF9 and 5 μg/ml heparin, 1% murine IL-6, 50 ng/ml IGF-1 or 50 ng/ml human IL-6 where indicated and increasing concentrations of PRO-001, control antibody (purified human Fab) or 100 nM PD173074. […]"}, "FGFR3-F384L": {"biological_target": "T2, FGFR3-F384L (Homo sapiens, UniProt P22607, F384L)", "T2 construct": "expressed in transfected cells; host or cells: B9 cells", "T2 sequence (P22607 23-806 F384L)": "as the sequence (P22607 23-806) above, with F362L counted along it", "experiment": "FGF-stimulated growth of B9 cells expressing FGFR3 mutant F384L", "format": "cell-based", "experimental": "(§2) Non-transformed rat chondrocyte cell line expressing PGFR3 in an inducible manner (RCJ-FGFR3) has been described previously (Rauchenberger R. et al. J. Biol. Chem. 2003; 278:38194-205). Cells were maintained in α-Minimum Essential Media supplemented with 15% fetal calf serum (FCS), 2 mM L-Glutamine, 100 U/ml penicillin, 100 μg/ml streptomycin, 600 μg/ml G418 (Gibco BRL, Ontario, Canada), 2 μg/ml Tetracyclin (Sigma, Ontario, Canada), and 50 μg/ml HygromycinB (Gibco BRL). FGFR3 expression was induced by removal of tetracyclin and serum starvation. […]\nas §1"}, "KMS11 (FGFR3-Y373C)": {"system": "KMS11 (FGFR3-Y373C)", "experiment": "Viability of KMS11 myeloma cells", "format": "cell-based, human", "conditions": "cells grow independent of FGF", "experimental": "as §2, §1"}, "BMSC": {"system": "BMSC", "experiment": "Direct toxicity on bone marrow stroma cells (annexin V)", "format": "cell-based, human", "conditions": "5 μg/ml, 72 hours (FIG. 5 legend)", "experimental": "FIG. 5 is a graph showing apoptosis of UTMC2 cells in response to treatment with PRO-001 in the presence of BMSCs (stroma). BMSCs alone (stroma) or BMSCs together with UTMC2 cells (stroma/UTMC2) were cultured with control antibody or 5 μg/ml PRO-001 for 72 hours and apoptosis was assessed by means of a flow cytometry assay of annexin V binding and propidium iodide exclusion. Values represent means of quadruplicate cultures ±SD.\nas §2\nFor studies of apoptosis, cells were seeded at an initial density of 2.5×10^5/ml in 6 well plates coated with BMSCs and supplemented with control (vehicle or antibody) or 5 μg/ml PRO-001 and cultured for 48 h. Apoptosis was determined by Annexin V staining (Boehringer Mannheim, Indianapolis, Ind.) and analyzed by flow cytometry. […]"}},
  "data": [
    {"molecule": "B1", "values": [
      {"measurement": "FGFR3 Domain Specificity", "setting": "FGFR3", "value": 2},
      {"measurement": "Growth inhibition of FGF stimulated B9-FGFR3^WT cells", "setting": "WT FGFR3; 1 μg/ml antibody", "value": "about 25%"},
      {"measurement": "Growth inhibition of FGF stimulated B9-FGFR3^WT cells", "setting": "WT FGFR3; 5 μg/ml antibody", "value": "more than 60%"},
      {"measurement": "IC50, FGF-stimulated growth of B9 cells expressing FGFR3 mutant F384L", "setting": "FGFR3-F384L", "value": "approximately 3 μg/ml"},
      {"measurement": "Viability of KMS11 (FGFR3-Y373C)", "setting": "KMS11 (FGFR3-Y373C)", "value": "failed to inhibit the viability"},
      {"measurement": "Direct toxicity on the BMSC", "setting": "BMSC", "value": "no direct toxicity"}
    ]}
  ]
}
